According to patent publication US20220389379A1, “PRIMARY BREAST EPITHELIAL CELL CULTURE MEDIUM, CULTURE METHOD AND USE THEREOF” (PRECEDO PHARMACEUTICALS CO., LTD, priority 2019, published 2022):

B1: R-spondin3: R-spondin family protein, medium additive (protein, UniProt Q9BXY4 22-272, looked up)
R-spondin-3: QNASRGRRQRRMHPNVSQGCQGGCATCSDYNGCLSCKPRLFFALERIGMKQIGVCLSSCPSGYYGTRYPDINKCTKCKADCDTCFNKNFCTKCKSGFYLHLGKCLDNCPEGLEANNHTMECVSIVHCEVSEWNPWSPCTKKGKTCGFKRGTETRVREIIQHPSAKGNLCPPTNETRKCTVQRKKCQKGERGKKGRERKRKKPNKGESKEAIPDSKSLESSKEIPEQRENKQQQKKRKVQDKQKSVSVSTVH
B2: Noggin: medium additive (R&D) (protein, UniProt Q13253 28-232, looked up)
Noggin: QHYLHIRPAPSDNLPLVDLIEHPDPIFDPKEKDLNETLLRSLLGGHYDPGFMATSPPEDRPGGGGGAAGGAEDLAELDQLLRQRPSGAMPSEIKGLEFSEGLAQGKKQRLSKKLRRKLQMWLWSQTFCPVLYAWNDLGSRFWPRYVKVGSCFSKRSCSVPEGMVCKPSKSVHLTVLRWRCQRRGGQRCGWIPIQYPIISECKCSC
B3: Fibroblast growth factor 10: fibroblast growth factor 10 (FGF10), medium additive (protein, UniProt O15520 38-208, looked up)
Fibroblast growth factor 10: QALGQDMVSPEATNSSSSSFSSPSSAGRHVRSYNHLQGDVRWRKLFSFTKYFLKIEKNGKVSGTKKENCPYSILEITSVEIGVVAVKAINSNYYLAMNKKGKLYGSKEFNNDCKLKERIEENGYNTYASFNWQHNGRQMYVALNGKGAPRRGQKTRRKNTSAHFLPMVVHS
B4: Interleukin 10: medium additive (R&D) (protein, UniProt P22301 19-178, looked up)
Interleukin-10: SPGQGTQSENSCTHFPGNLPNMLRDLRDAFSRVKTFFQMKDQLDNLLLKESLLEDFKGYLGCQALSEMIQFYLEEVMPQAENQDPDIKAHVNSLGENLKTLRLRLRRCHRFLPCENKSKAVEQVKNAFNKLQEKGIYKAMSEFDIFINYIEAYMTMKIRN
B5: R-spondin1: R-spondin family protein, medium additive (protein, UniProt Q2MKA7 21-263, looked up)
R-spondin-1: SRGIKGKRQRRISAEGSQACAKGCELCSEVNGCLKCSPKLFILLERNDIRQVGVCLPSCPPGYFDARNPDMNKCIKCKIEHCEACFSHNFCTKCKEGLYLHKGRCYPACPEGSSAANGTMECSSPAQCEMSEWSPWGPCSKKQQLCGFRRGSEERTRRVLHAPVGDHAACSDTKETRRCTVRRVPCPEGQKRRKGGQGRRENANRNLARKESKEAGAGSRRRKGQQQQQQQGTVGPLTSAGPA
B6: Amphiregulin: human amphiregulin (R&D Systems), medium additive (protein, UniProt P15514 101-187, looked up)
Amphiregulin: SVRVEQVVKPPQNKTESENTSDKPKRKKKGGKNGKNRRNRKKKNPCNAEFQNFCIHGECKYIEHLEAVTCKCQQEYFGERCGEKSMK
B7: Fibroblast growth factor 7: fibroblast growth factor 7 (FGF7), medium additive (protein, UniProt P21781 32-194, looked up)
Fibroblast growth factor 7: CNDMTPEQMATNVNCSSPERHTRSYDYMEGGDIRVRRLFCRTQWYLRIDKRGKVKGTQEMKNNYNIMEIRTVAVGIVAIKGVESEFYLAMNKEGKLYAKKECNEDCNFKELILENHYNTYASAKWTHNGGEMFVALNQKGIPVRGKKTKKEQKTAHFLPMAIT

tested on: primary breast tumor epithelial cells isolated from breast cancer tissues (HMFL-XN1, HMFL-XN3, HMFL-XN4, HMFL-XN6, HMFL-XN8); assay: Optimization of primary breast epithelial cell culture medium: cell count after culture with medium additives; format: cell-based, human; set-up: key: +: compared with the basis medium, the medium added with the additive(s) can promote the proliferation of primary breast tumor epithelial cells isolated from at least three cases of breast cancer tissues; −: the medium added with the additive(s) has the effect of inhibiting proliferation of primary breast tumor epithelial cells isolated from at least two cases of breast cancer tissues; ○: the medium added with this additive(s) has no significant effect on the proliferation of primary breast tumor epithelial cells isolated from at least three cases of breast cancer tissues; conditions: additive at the concentration given in Table 1 added to basis medium; cell count after 10 days of culture, compared with basis medium; five breast cancer samples
Method: Matrigel (registered trademark) (manufactured by BD Biosciences) was diluted at 1:100 in serum-free DMEM/F12 medium to prepare an extracellular matrix dilution, which was added to a 48-well culture plate with 200 μl/well to completely cover the bottom of the wells of the culture plate. The resultant was let stand for 1 hour in a 37° C. incubator. After 1 hour, the extracellular matrix dilution was removed to provide a Matrigel-coated plate.
First, a basis medium was prepared. To a commercial DMEM/F-12 medium, GlutaMAX-I (manufactured by Thermo Fisher SCIENTIFIC) was added at the specified concentration (1:100 dilution), human insulin (manufactured by Sigma) was added at a final concentration of 10 μg/ml, ROCK kinase inhibitor Y27632 (manufactured by Sigma) was added at a final concentration of 10 μM, and penicillin-streptomycin (manufactured by Thermo Fisher SCIENTIFIC) was added at a 1:100 dilution ratio, which provides the basis medium.
Next, different types of additives (as shown in Table 1) were added to the basis medium to prepare breast epithelial cell culture mediums containing different supplementary components, and the mediums with different components were added at a volume of 500 μl/well to 48-well plates which were coated with extracellular matrix gel (Matrigel). Breast tumor cells (HMFL-XN1) isolated from breast cancer tissue in step (1) of this Example were inoculated in a Matrigel-coated 48-well culture plate at a cell density of 1×10^4 cells/well, and equal numbers of freshly isolated breast tumor cells (HMFL-XN1) were cultured under different medium formulations at 37° C., under 5% CO2 concentration and 20% oxygen concentration. The medium was renewed every 4 days after the start of the culture. After 10 days of culture, cell counts were performed. As an experiment control, the basis medium without any additives was used. Breast tumor cells isolated from the remaining four breast cancer tissue samples were cultured and counted in the same manner as above.

B1 was tested. Which Degree of cell did it give?
Its Degree of cell is “○”.

Which Degree of cell does the source give for B2 here?
Its Degree of cell is “○”.

How did the Degree of cell turn out when B3 was run?
The Degree of cell was “+”.

For B4, which Degree of cell is on record?
Its Degree of cell is “○”.

For B5, which Degree of cell is on record?
The Degree of cell was “○”.

With B6 as the molecule, how does the Degree of cell read?
Its Degree of cell is “+”.

How did the Degree of cell turn out when B7 was run?
Its Degree of cell is “+”.
